The text below walks through data of US20150141489.

The series deals with endogenous p38α, Q16539.
endogenous p38α, Q16539, sequence (Q16539 2-360): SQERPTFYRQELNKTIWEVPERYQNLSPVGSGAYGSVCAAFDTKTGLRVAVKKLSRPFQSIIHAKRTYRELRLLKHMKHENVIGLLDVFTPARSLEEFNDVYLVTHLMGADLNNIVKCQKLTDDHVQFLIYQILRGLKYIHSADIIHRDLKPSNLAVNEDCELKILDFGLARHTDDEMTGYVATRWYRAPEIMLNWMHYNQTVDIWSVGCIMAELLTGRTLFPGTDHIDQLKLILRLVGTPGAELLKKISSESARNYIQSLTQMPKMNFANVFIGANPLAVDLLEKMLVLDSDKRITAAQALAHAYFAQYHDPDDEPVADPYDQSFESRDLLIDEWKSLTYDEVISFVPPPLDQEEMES

B1: T7-tagged human Mnk2a (protein)
chain: MVQKKPAELQGFHRSFKGQNPFELAFSLDQPDHGDSDFGLQCSARPDMPASQPIDIPDAKKRGKKKKRGRATDSFSGRFEDVYQLQEDVLGEGAHARVQTCINLITSQEYAVKIIEKQPGHIRSRVFREVEMLYQCQGHRNVLELIEFFEEEDRFYLVFEKMRGGSILSHIHKRRHFNELEASVVVQDVASALDFLHNKGIAHRDLKPENILCEHPNQVSPVKICDFDLGSGIKLNGDCSPISTPELLTPCGSAEYMAPEVVEAFSEEASIYDKRCDLWSLGVILYILLSGYPPFVGRCGSDCGWDRGEACPACQNMLFESIQEGKYEFPDKDWAHISCAAKDLISKLLVRDAKQRLSAAQVLQHPWVQGCAPENTLPTPMVLQRNSCAKDLTSFAAEAIAMNRQLAQHDEDLAEEEAAGQGQPVLVRATSRCLQLSPPSQSKLAQRRQRASLSSAPVVLVGDHA
Regarding B1, the “p38-MAPK phosphorylation (Western blot)” value is reported as “only cells expressing Mnk2a showed increased p38-MAPK phosphorylation, indicating that p38-MAPK is activated”.

B2: Mnk2a-kinase dead (Mnk2aKD) (protein)
chain: MVQKKPAELQGFHRSFKGQNPFELAFSLDQPDHGDSDFGLQCSARPDMPASQPIDIPDAKKRGKKKKRGRATDSFSGRFEDVYQLQEDVLGEGAHARVQTCINLITSQEYAVAIIEKQPGHIRSRVFREVEMLYQCQGHRNVLELIEFFEEEDRFYLVFEKMRGGSILSHIHKRRHFNELEASVVVQDVASALDFLHNKGIAHRDLKPENILCEHPNQVSPVKICDFDLGSGIKLNGDCSPISTPELLTPCGSAEYMAPEVVEAFSEEASIYDKRCDLWSLGVILYILLSGYPPFVGRCGSDCGWDRGEACPACQNMLFESIQEGKYEFPDKDWAHISCAAKDLISKLLVRDAKQRLSAAQVLQHPWVQGCAPENTLPTPMVLQRNSCAKDLTSFAAEAIAMNRQLAQHDEDLAEEEAAGQGQPVLVRATSRCLQLSPPSQSKLAQRRQRASLSSAPVVLVGDHA
Regarding B2, the “p38 or MK2 phosphorylation (Western blot)” value is “it did not cause activation of p38, as measured by p38 or MK2 phosphorylation”.
